{
  "source": "patent US20240010748A1",
  "about": "(SHANGHAI QILU PHARMACEUTICAL RESEARCH AND DEVELOPMENT CENTRE, published 2024)",
  "key": {"[1]": {"biological_target": "T1, Cynomolgus macaques Claudin 18 (cynoCLDN18) on stably-transfected HEK293 cells (Cynomolgus macaques, UniProt A0A2K5VVB4 1-261)", "T1 chain": "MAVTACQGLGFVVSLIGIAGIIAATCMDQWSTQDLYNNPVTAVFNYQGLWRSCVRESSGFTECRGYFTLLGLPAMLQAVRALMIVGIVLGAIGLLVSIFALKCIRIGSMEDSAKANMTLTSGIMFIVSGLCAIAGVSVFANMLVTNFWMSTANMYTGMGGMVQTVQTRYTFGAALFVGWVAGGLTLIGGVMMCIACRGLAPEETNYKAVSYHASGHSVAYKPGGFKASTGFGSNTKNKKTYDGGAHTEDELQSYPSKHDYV", "assay": "FACS on HEK293-cynoCLDN18 cells"}, "[2]": {"biological_target": "T2, human Claudin 18.2 (hCLDN18.2) on stably-transfected HEK293 cells (human, UniProt P56856-2 1-261)", "T2 construct": "whole, on cells; also called CLDN18A2; HEK293-hCLDN18.2", "T2 sequence (looked up)": "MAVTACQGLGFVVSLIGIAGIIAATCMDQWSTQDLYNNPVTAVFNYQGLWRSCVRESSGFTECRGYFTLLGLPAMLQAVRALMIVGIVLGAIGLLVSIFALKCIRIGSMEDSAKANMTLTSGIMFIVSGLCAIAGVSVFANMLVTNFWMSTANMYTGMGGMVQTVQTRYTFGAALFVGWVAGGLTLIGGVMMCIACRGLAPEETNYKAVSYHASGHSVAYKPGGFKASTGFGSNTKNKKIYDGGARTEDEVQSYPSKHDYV", "assay": "FACS on HEK293-hCLDN18.2 cells", "description": "(§1) The binding situation of the anti-CD3-CLDN18.2 bispecific antibodies to stably-transfected HEK293 cells expressing hCLDN18.2 (HEK293-hCLDN18.2) and T lymphocytes naturally expressing hCD3 (Jurkat) were detected by using FACS.\n(§2) HEK293-hCLDN18.2 or Jurkat cells were collected and re-suspended with FACS buffer (PBS+1% BSA+0.5 mM EDTA), after adjusting the cell concentration, 1E5 cells per well were added into a 96-well plate, and then the antibody after gradient dilution was added according to the preset concentration, wherein the negative control was human IgG1AA (Negative-IgG1AA), the positive control of CLDN18.2 was antibody 6#AA, and the positive control of CD3 was antibody h160C9AA. Following incubation in a 4° C. shaking table for 2 h, the mixture was centrifugally washed twice with FACS buffer, added with fluorescently labeled anti-human IgG secondary antibody, 100 μL per well; after incubation in a 4° C. shaking table for 1 h, the mixture was centrifugally washed twice with FACS buffer, the cells were filtered to a 96-well plate, and then the prepared sample was detected on a flow cytometer; the mean fluorescence intensity (hereinafter referred to as MFI) for each concentration was calculated by software, and then the median effective concentration (hereinafter referred to as EC₅₀) and the top mean fluorescence intensity (Top MFI) were calculated by GraphPad software, and the results were shown in Table 3."}, "[3]": {"biological_target": "T3, human CD3 (hCD3) naturally expressed on Jurkat cells (human, UniProt P07766 23-207)", "T3 sequence (P07766 23-207)": "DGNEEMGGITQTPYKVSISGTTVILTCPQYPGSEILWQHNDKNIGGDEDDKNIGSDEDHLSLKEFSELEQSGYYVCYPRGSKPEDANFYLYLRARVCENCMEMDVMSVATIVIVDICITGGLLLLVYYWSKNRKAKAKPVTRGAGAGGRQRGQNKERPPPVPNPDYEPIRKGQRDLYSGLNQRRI", "assay": "cell-based or functional assay"}, "[4]": {"biological_target": "T3, human CD3 (hCD3) naturally expressed on …", "assay": "FACS on Jurkat cells", "description": "as §1, §2"}, "[5]": {"biological_target": "T2, human Claudin 18.2 (hCLDN18.2) on …", "assay": "cell-based or functional assay"}, "[6]": {"biological_target": "T3, human CD3 (hCD3) naturally expressed on …", "assay": "FACS on Jurkat cells (natural hCD3), fluorescent anti-human IgG secondary antibody", "description": "as §1\nHEK293-hCLDN18.2 or Jurkat cells were collected and re-suspended with FACS buffer (PBS+1% BSA+0.5 mM EDTA), after adjusting the cell concentration, 1E5 cells per well were added into a 96-well plate, and then the antibody after gradient dilution was added according to the preset concentration, wherein the negative control was human IgG1AA (Negative-IgG1AA), the positive control of CLDN18.2 was antibody 6#AA, and the positive control of CD3 was antibody h160C9AA. […]"}, "[7]": {"biological_target": "T2, human Claudin 18.2 (hCLDN18.2) on …", "assay": "cell-based or functional assay", "remark": "listed apart in the source"}, "human CD3 E&D protein": {"biological_target": "T4, human CD3 E&D protein (human, UniProt P07766 23-126; P04234 22-105)", "T4 construct": "Soluble CD3 epsilon and delta protein immobilised on the chip; also called Humanized CD3 E&D; humanized CD3 E&D protein", "T4 sequence (P07766 23-126, chain 1 of 2)": "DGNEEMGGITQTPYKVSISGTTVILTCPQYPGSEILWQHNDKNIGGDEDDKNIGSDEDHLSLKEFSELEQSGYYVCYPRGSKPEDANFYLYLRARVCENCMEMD", "T4 sequence (P04234 22-105, chain 2 of 2)": "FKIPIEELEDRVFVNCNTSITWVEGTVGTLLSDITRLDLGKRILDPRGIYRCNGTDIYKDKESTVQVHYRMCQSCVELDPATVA", "assay": "SPR (Biacore 8K), CD3 E&D immobilised by amino coupling, antibody as analyte, 1:1 fit", "description": "The affinity and kinetic properties of the bispecific antibodies to human CD3 E&D proteins were determined by surface plasmon resonance (SPR) using a Biacore 8K instrument. The human CD3 E&D protein was immobilized on the experimental channel of CMS chip by amino coupling, then the antibody to be tested was subjected to doubling dilution to serial concentrations, flowed through the surfaces of an experimental channel and a reference channel successively for binding, followed by dissociation, the binding and dissociation curve of each sample was obtained, and the results were analyzed and evaluated by Biacore Insight Evaluation software.\nThe bispecific antibodies of the present disclosure were diluted to 400 nM with 1×HBS-EP+ (10 mM HEPES, pH 7.4, 150 mM NaCl, 3 mM EDTA, 0.05% P20) running buffer, then subjected to doubling dilution to 1.56 nM with this buffer, thus obtaining antibody solutions in a range of concentrations from 400 nM to 1.56 nM. At the end of each experiment, the chip was regenerated by washing with 3M MgCl₂ solution at a flow rate of 30 μL/min for 30 s to remove captured antibody together with antigen. The raw data were analyzed using Biacore Insight Evaluation Software (version 2.0.15.12933) with a 1:1 fit model and affinity and kinetic experimental data of the resulting bispecific antibodies were shown in Table 4."}},
  "data": [
    {"binder": "h160C9AA (antibody, human IgG1, lambda, L234A L235A, V domains shown, Anti-CD3 full-length antibody, Fc with L234A/L235A) VH: EVKLVESGGGLVQPGGSLKLSCAASGFTFNTYAMNWVRQAPGKGLEWVARIRSKYNNYATYYADSVKDRFTISRDDAKNTLYLQMNNLRTEDTAVYYCVRHGNFGNSYVSWFAYWGQGTLVTVSS VL: QAVVTQEPSLTVSPGGTVTLTCRSSTGAVTTSNYANWVQQKPGQAPRGLIGGTNKRAPGTPARFSGSLLGGKAALTLSGAQPEDEAEYYCALWYSNLWVFGGGTKLTVLG", "values": [
      {"measurement": "MFI (Max)", "setting": "[1]", "value": 1040, "unit": "MFI"},
      {"measurement": "Top mean fluorescence intensity (Top MFI)", "setting": "[2]", "value": 897, "unit": "MFI"},
      {"measurement": "Jurkat-NFAT luciferase reporter, EC50", "setting": "[3]", "value": 0.32, "unit": "nM"},
      {"measurement": "Jurkat-NFAT luciferase reporter, Fluorescence value (Max)", "setting": "[3]", "value": 220000},
      {"measurement": "EC50", "setting": "[4]", "value": 0.13, "unit": "nM"},
      {"measurement": "Top mean fluorescence intensity (Top MFI)", "setting": "[4]", "value": 2020, "unit": "MFI"}
    ]},
    {"binder": "6#AA (antibody, human IgG1, kappa, L234A L235A, V domains shown, Anti-human CLDN18.2 full-length antibody, IgG1 Fc with L234A/L235A) VH: QVQLVQSGAEVKKPGASVKVSCKASGYIFTNYWIHWVRQAPGQGLEWMGRIYPGTGNTYYNEKFTGRVTMTRDTSTSTVYMELSSLRSEDTAVYYCAREGYGKGNSMDYWGQGTTVTVSS VL: DIVMTQSPDSLAVSLGERVTMNCKSSQSLLNAGNQKNYLTWYQQKPGQPPKLLFYWASTRESGVPDRFSGSGSGTDFTLTISSVQAEDVAVYHCQNAYYYPYTFGGGTKLEIKR", "values": [
      {"measurement": "ADCC activity, EC50", "setting": "[5]", "value": 0.771, "unit": "nM"},
      {"measurement": "ADCC activity, Maximum lysis (%)", "setting": "[5]", "value": 6.92, "unit": "%"},
      {"measurement": "binding result", "setting": "[6]", "value": "no binding (tested: about 2e-7 M (log M about -6.7))"},
      {"measurement": "T cell activation, CD25+CD69+ %", "setting": "[7]", "value": 3.18, "unit": "%"},
      {"measurement": "TDCC activity, EC50", "setting": "[7]", "value": 1.45, "unit": "nM"},
      {"measurement": "TDCC activity, Maximum lysis (%)", "setting": "[7]", "value": 16.3, "unit": "%"},
      {"measurement": "EC50", "setting": "[1]", "value": 0.62, "unit": "nM"},
      {"measurement": "MFI (Max)", "setting": "[1]", "value": 39500, "unit": "MFI"},
      {"measurement": "EC50", "setting": "[2]", "value": 0.95, "unit": "nM"},
      {"measurement": "Top mean fluorescence intensity (Top MFI)", "setting": "[2]", "value": 18600, "unit": "MFI"},
      {"measurement": "Jurkat-NFAT luciferase reporter, Fluorescence value (Max)", "setting": "[3]", "value": 0},
      {"measurement": "Top mean fluorescence intensity (Top MFI)", "setting": "[4]", "value": 26, "unit": "MFI"}
    ]},
    {"binder": "31905-44AA (bispecific antibody, human IgG1, kappa, L234A L235A, Full-length 6#AA with one anti-CD3 scFv of h160C9AA on the C-terminus of one heavy chain; knob-into-hole; Fc with L234A/L235A; also called anti-CD3-CLDN18.2 bispecific antibody; CD3 monovalent antibody) heavy 1: not shown heavy 2: QVQLVQSGAEVKKPGASVKVSCKASGYIFTNYWIHWVRQAPGQGLEWMGRIYPGTGNTYYNEKFTGRVTMTRDTSTSTVYMELSSLRSEDTAVYYCAREGYGKGNSMDYWGQGTTVTVSSASTKGPSVFPLAPSSKSTSGGTAALGCLVKDYFPEPVTVSWNSGALTSGVHTFPAVLQSSGLYSLSSVVTVPSSSLGTQTYICNVNHKPSNTKVDKKVEPKSCDKTHTCPPCPAPEAAGGPSVFLFPPKPKDTLMISRTPEVTCVVVDVSHEDPEVKFNWYVDGVEVHNAKTKPREEQYNSTYRVVSVLTVLHQDWLNGKEYKCKVSNKALPAPIEKTISKAKGQPREPQVCTLPPSRDELTKNQVSLSCAVKGFYPSDIAVEWESNGQPENNYKTTPPVLDSDGSFFLVSKLTVDKSRWQQGNVFSCSVMHEALHNRYTQKSLSLSPGK light: not shown", "values": [
      {"measurement": "ADCC activity, EC50", "setting": "[5]", "value": 0.532, "unit": "nM"},
      {"measurement": "ADCC activity, Maximum lysis (%)", "setting": "[5]", "value": 7.03, "unit": "%"},
      {"measurement": "T cell activation, CD25+CD69+ %", "setting": "[7]", "value": 33.4, "unit": "%"},
      {"measurement": "T cell activation, EC50", "setting": "[7]", "value": 0.049, "unit": "nM"},
      {"measurement": "TDCC activity, EC50", "setting": "[7]", "value": 0.54, "unit": "nM"},
      {"measurement": "TDCC activity, Maximum lysis (%)", "setting": "[7]", "value": 30, "unit": "%"},
      {"measurement": "EC50", "setting": "[1]", "value": 0.84, "unit": "nM"},
      {"measurement": "MFI (Max)", "setting": "[1]", "value": 41800, "unit": "MFI"},
      {"measurement": "Kd", "setting": "human CD3 E&D protein", "value": 17.9, "unit": "nM"},
      {"measurement": "koff", "setting": "human CD3 E&D protein", "value": 0.00365, "unit": "s⁻¹"},
      {"measurement": "kon", "setting": "human CD3 E&D protein", "value": 204000, "unit": "M⁻¹ s⁻¹"},
      {"measurement": "EC50", "setting": "[2]", "value": 1.18, "unit": "nM"},
      {"measurement": "Top mean fluorescence intensity (Top MFI)", "setting": "[2]", "value": 31000, "unit": "MFI"},
      {"measurement": "Jurkat-NFAT luciferase reporter, EC50", "setting": "[3]", "value": 124, "unit": "nM"},
      {"measurement": "Jurkat-NFAT luciferase reporter, Fluorescence value (Max)", "setting": "[3]", "value": 114000},
      {"measurement": "EC50", "setting": "[4]", "value": 9.3, "unit": "nM"},
      {"measurement": "Top mean fluorescence intensity (Top MFI)", "setting": "[4]", "value": 1700, "unit": "MFI"}
    ]}
  ]
}
